Source: article PMC11106675, “Synthesis of 1,4-azaphosphinine nucleosides and evaluation as inhibitors of human cytidine deaminase and APOBEC3A” (Beilstein Journal of Organic Chemistry, 2024)

Substrate: Nc1ccn([C@H]2C[C@H](O)[C@@H](CO)O2)c(=O)n1
Assay: UV kinetic assay of hCDA-catalysed 2'-deoxycytidine deamination
Type: biochemical, human
Conditions: other: pH 7.4, fitted in the experiment with inhibitor β-anomer of Vb, 25.0 °C
Procedure: We monitored the hCDA-catalysed deamination of dC at 286 nm and analysed the kinetic profiles at various inhibitor concentrations using a global regression analysis of the kinetic data using Lambert’s W function. This method provides better estimates for the Michaelis–Menten constant (KM) and maximum velocity (Vmax) than nonlinear regression analysis of the initial rate (V0). […] Then, KM for the substrate and Ki for each inhibitor were calculated, assuming competitive nature of the inhibitors (Table 1).
We assumed that protonation of Va might result in some inhibition of hCDA. […] This means that the pH value of the assay should be close to pH 1.5 to see any meaningful effect of partially protonated compound Va, but hCDA would be denatured at this pH value. By lowering the pH value to 6.0, dZ (IIc) started to lose potency against hCDA (Table 1), which might be a result of protonation of the pyrimidine ring in dZ (IIc). […]
Figure S10. hCDA (27nM) catalysed deamination of 2'-deoxycitidine (⁓1.5 mM) in the absence (plus) and presence of 5 µM 2'-deoxyzebularine (IIc, asterisk) monitored by measuring absorbance at 286 nm over time in 100 mM NaCl, 1 mM TCEP, 50 mM phosphate buffer at 25 °C, at pH 7.4. […]
where mm(t) calculates the current substrate concentration with respect to the time, t. […] A summary of the measured inhibition […]
Uncertainty of Ki was calculated using error-propagation method. […]

B1: human cytidine deaminase (hCDA) (Homo sapiens) (protein)
chain: MAQKRPACTLKPECVQQLLVCSQEAKKSAYCPYSHFPVGAALLTQEGRIFKGCNIENACYPLGICAERTAIQKAVSEGYKDFRAIAIASDMQDDFISPCGACRQVMREFGTNWPVYMTKPDGTYIVMTVQELLPSSFGPEDLQKTQ
notes: purchased Sigma-Aldrich SRP6372; host or cells: E. coli
  Km: 240 ± 150 µM
